# Assay results taken from article PMC314469, “Protein Interaction Networks by Proteome Peptide Scanning” (PLoS Biology, 2004).
# T1: Yfr024 SH3 (LSB3_YEAST), P43603
# T1 chain: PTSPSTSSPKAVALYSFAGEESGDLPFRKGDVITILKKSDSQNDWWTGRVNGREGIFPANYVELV
# T2: Rvs167 SH3 (RV167_YEAST), P39743
# T2 chain: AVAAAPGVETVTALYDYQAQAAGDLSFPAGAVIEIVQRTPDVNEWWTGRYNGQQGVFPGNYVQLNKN
# T3: Boi1 SH3 (BOI1_YEAST), P38041
# T3 chain: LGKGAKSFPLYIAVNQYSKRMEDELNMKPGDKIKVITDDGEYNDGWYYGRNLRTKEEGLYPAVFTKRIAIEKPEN
# T4: Boi2 SH3 (BOI2_YEAST), P39969
# T4 chain: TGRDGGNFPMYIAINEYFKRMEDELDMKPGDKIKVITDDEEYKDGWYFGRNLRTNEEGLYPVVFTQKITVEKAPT
# T5: Yhr016c SH3 (YSC84_YEAST), P32793
# T5 chain: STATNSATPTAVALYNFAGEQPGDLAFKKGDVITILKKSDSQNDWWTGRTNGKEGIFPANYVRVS
# Target: T1, Yfr024 SH3 (LSB3_YEAST), P43603
# Assay: SPOT array
row,"normalised SPOT signal, Boehringer light units (BLU); mean over the file's lines of this peptide",Binder
1,109,ELEPQHPLRHKSSL [YER027C 53-66]
2,13.7,ELLPVVPEKFLIAS [YOR273C 415-428]
3,34.4,ENAPANPSKALKVK [YHR108W 549-562]
4,5120,EKGPRMPSRGRPRP [YPR171W 144-157]
5,2140,EMIPSSPQRKSVSN [YBR098W 51-64]
6,57000,ELPPIKPPRPTSTT [YBL007C 619-632]
7,179,ELPPTHPIRLGLAL [YDR099W 164-177]
8,2720,EILPVKPTKKSSKK [YCL014W 808-821]
9,35400,EIAPSLPSRNSIPA [YCR088W 471-484]
10,7910,EKFPKLPHKLVHML [YKR024C 336-349]
11,41400,EIPPPLPPKIMVHS [YIL156W 528-541]
12,42.4,ELDPISPLKVPLTA [YGR166W 276-289]
13,12200,EKLPETPDRSKSAS [YLR343W 379-392]
14,244,EILPQAPAKKVFES [YDR444W 379-392]
15,667,EKLPAIPRKFIVTE [YMR296C 278-291]

# Target: T2, Rvs167 SH3 (RV167_YEAST), P39743
# Assay: SPOT array
row,"normalised SPOT signal, Boehringer light units (BLU); mean over the file's lines of this peptide",Binder
1,38.4,ELEPQHPLRHKSSL [YER027C 53-66]
2,15.1,ELLPVVPEKFLIAS [YOR273C 415-428]
3,68,ENAPANPSKALKVK [YHR108W 549-562]
4,72.6,EKGPRMPSRGRPRP [YPR171W 144-157]
5,220,EMIPSSPQRKSVSN [YBR098W 51-64]
6,1900,ELPPIKPPRPTSTT [YBL007C 619-632]
7,24.8,ELPPTHPIRLGLAL [YDR099W 164-177]
8,63.9,EILPVKPTKKSSKK [YCL014W 808-821]
9,18700,EIAPSLPSRNSIPA [YCR088W 471-484]
10,32.9,EKFPKLPHKLVHML [YKR024C 336-349]
11,135,EIPPPLPPKIMVHS [YIL156W 528-541]
12,39.4,ELDPISPLKVPLTA [YGR166W 276-289]
13,67.1,EKLPETPDRSKSAS [YLR343W 379-392]
14,65.2,EILPQAPAKKVFES [YDR444W 379-392]
15,41.4,EKLPAIPRKFIVTE [YMR296C 278-291]

# Target: T3, Boi1 SH3 (BOI1_YEAST), P38041
# Assay: SPOT array
row,"normalised SPOT signal, Boehringer light units (BLU); mean over the file's lines of this peptide",Binder
1,65.2,ELEPQHPLRHKSSL [YER027C 53-66]
2,90.2,ELLPVVPEKFLIAS [YOR273C 415-428]
3,21.4,ENAPANPSKALKVK [YHR108W 549-562]
4,394,EKGPRMPSRGRPRP [YPR171W 144-157]
5,59,EMIPSSPQRKSVSN [YBR098W 51-64]
6,54.9,ELPPIKPPRPTSTT [YBL007C 619-632]
7,77.1,ELPPTHPIRLGLAL [YDR099W 164-177]
8,364,EILPVKPTKKSSKK [YCL014W 808-821]
9,92.9,EIAPSLPSRNSIPA [YCR088W 471-484]
10,56.5,EKFPKLPHKLVHML [YKR024C 336-349]
11,121,EIPPPLPPKIMVHS [YIL156W 528-541]
12,56.8,ELDPISPLKVPLTA [YGR166W 276-289]
13,69.3,EKLPETPDRSKSAS [YLR343W 379-392]
14,34.7,EILPQAPAKKVFES [YDR444W 379-392]
15,26.8,EKLPAIPRKFIVTE [YMR296C 278-291]

# Target: T4, Boi2 SH3 (BOI2_YEAST), P39969
# Assay: SPOT array
row,"normalised SPOT signal, Boehringer light units (BLU); mean over the file's lines of this peptide",Binder
1,60,ELEPQHPLRHKSSL [YER027C 53-66]
2,13.5,ELLPVVPEKFLIAS [YOR273C 415-428]
3,34.7,ENAPANPSKALKVK [YHR108W 549-562]
4,161,EKGPRMPSRGRPRP [YPR171W 144-157]
5,37.3,EMIPSSPQRKSVSN [YBR098W 51-64]
6,90.2,ELPPIKPPRPTSTT [YBL007C 619-632]
7,46.1,ELPPTHPIRLGLAL [YDR099W 164-177]
8,21.3,EILPVKPTKKSSKK [YCL014W 808-821]
9,51.6,EIAPSLPSRNSIPA [YCR088W 471-484]
10,83.5,EKFPKLPHKLVHML [YKR024C 336-349]
11,15.5,EIPPPLPPKIMVHS [YIL156W 528-541]
12,46,ELDPISPLKVPLTA [YGR166W 276-289]
13,69.2,EKLPETPDRSKSAS [YLR343W 379-392]
14,21.5,EILPQAPAKKVFES [YDR444W 379-392]
15,17.5,EKLPAIPRKFIVTE [YMR296C 278-291]

# Target: T5, Yhr016c SH3 (YSC84_YEAST), P32793
# Assay: SPOT array
row,"normalised SPOT signal, Boehringer light units (BLU); mean over the file's lines of this peptide",Binder
1,333,ELEPQHPLRHKSSL [YER027C 53-66]
2,149,ELLPVVPEKFLIAS [YOR273C 415-428]
3,209,ENAPANPSKALKVK [YHR108W 549-562]
4,1840,EKGPRMPSRGRPRP [YPR171W 144-157]
5,323,EMIPSSPQRKSVSN [YBR098W 51-64]
6,43100,ELPPIKPPRPTSTT [YBL007C 619-632]
7,203,ELPPTHPIRLGLAL [YDR099W 164-177]
8,34.7,EILPVKPTKKSSKK [YCL014W 808-821]
9,40900,EIAPSLPSRNSIPA [YCR088W 471-484]
10,139,EKFPKLPHKLVHML [YKR024C 336-349]
11,14500,EIPPPLPPKIMVHS [YIL156W 528-541]
12,160,ELDPISPLKVPLTA [YGR166W 276-289]
13,5560,EKLPETPDRSKSAS [YLR343W 379-392]
14,12.5,EILPQAPAKKVFES [YDR444W 379-392]
15,208,EKLPAIPRKFIVTE [YMR296C 278-291]
